Where two headings read alike, the source gives them in different places.
Experiments:
AgrA [1] = target: T1, AgrA (Staphylococcus aureus COL, UniProt Q5HEG2 1-238); assay: SPR
T1 sequence: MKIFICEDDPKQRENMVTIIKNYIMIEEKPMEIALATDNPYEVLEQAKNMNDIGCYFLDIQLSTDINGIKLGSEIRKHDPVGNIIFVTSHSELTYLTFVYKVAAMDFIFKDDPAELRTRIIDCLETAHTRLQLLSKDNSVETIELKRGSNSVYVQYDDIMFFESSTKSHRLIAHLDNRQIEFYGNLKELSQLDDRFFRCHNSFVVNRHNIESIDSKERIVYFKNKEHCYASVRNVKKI

AgrA~P [2] = target: T2, AgrA~P (Staphylococcus aureus COL, UniProt Q5HEG2 1-238); assay: SPR
T2 sequence: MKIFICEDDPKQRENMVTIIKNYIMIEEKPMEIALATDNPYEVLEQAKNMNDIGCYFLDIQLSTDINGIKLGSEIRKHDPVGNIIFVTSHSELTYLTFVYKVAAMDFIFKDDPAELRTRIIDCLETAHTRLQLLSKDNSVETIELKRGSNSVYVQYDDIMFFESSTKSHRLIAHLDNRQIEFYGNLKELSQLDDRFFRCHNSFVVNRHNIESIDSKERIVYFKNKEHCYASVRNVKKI

AgrA [3] = target: T1, AgrA; assay: competition
AgrA~P [4] = target: T2, AgrA~P; assay: competition
AgrA DBD (LytTR domain) [5] = target: T3, AgrA DBD (LytTR domain) (Staphylococcus aureus, UniProt Q5HEG2 138-238); assay: X-ray crystallography
T3 sequence: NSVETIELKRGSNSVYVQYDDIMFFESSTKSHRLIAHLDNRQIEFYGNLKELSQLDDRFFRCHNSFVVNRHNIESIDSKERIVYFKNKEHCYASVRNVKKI

AgrA DBD (LytTR domain) [6] = target: T3, AgrA DBD (LytTR domain); assay: X-ray crystallography; remark: listed apart in the source
AgrA DBD (LytTR domain) [7] = target: T3, AgrA DBD (LytTR domain); assay: X-ray crystallography; remark: listed apart in the source
AgrA DBD (LytTR domain) [8] = target: T3, AgrA DBD (LytTR domain); assay: X-ray crystallography; remark: listed apart in the source

B1: P2-P3 intergenic region (negative control) (dsDNA)
DNA 1: TTTTTATGTTAAAATATTAAATACAAATTAC
DNA 2: GTAATTTGTATTTAATATTTTAACATAAAAA
- binding result (AgrA [1]): no binding
- binding result (AgrA~P [2]): no binding

B2: P1 promoter (SPR) (dsDNA)
DNA 1: TCGAAATACCCGATGAAGTAAGTAGCATTAACTT
DNA 2: AAGTTAATGCTACTTACTTCATCGGGTATTTCGA
- binding result (AgrA [3]): binds

B3: P3 promoter (SPR) (dsDNA)
DNA 1: TTCTTAACTAGTCGTTTTTTATTCTTAACTGTAA
DNA 2: TTACAGTTAAGAATAAAAAACGACTAGTTAAGAA
- binding result (AgrA [3]): binds
- binding result (AgrA~P [4]): binds

B4: P2_S1 (dsDNA)
DNA 1: TCCTACAGTTAGGCAA
DNA 2: ATTGCCTAACTGTAGG
- binding result (AgrA DBD (LytTR domain) [5]): binds

B5: P2_S2 (dsDNA)
DNA 1: TTTAACAGTTAAGTAT
DNA 2: AATACTTAACTGTTAA
- binding result (AgrA DBD (LytTR domain) [6]): binds

B6: P3_S1 (dsDNA)
DNA 1: TCGACTAGTTAAGAAA
DNA 2: ATTTCTTAACTAGTCG
- binding result (AgrA DBD (LytTR domain) [7]): binds

B7: P3_S2 (dsDNA)
DNA 1: ATTTACAGTTAAGAAT
DNA 2: AATTCTTAACTGTAAA
- binding result (AgrA DBD (LytTR domain) [8]): binds

— PMC5600425
